One block for each molecule: values may come before it. Ends that are not written are not given here.
Experiments:
[1] = biological target: phrGFP-ΔMUC16^c334 on SKOV3 cells (human); assay: FACS dot plot, surface staining, goat anti-mouse IgG PE (FL2) against GFP (FL1); secondary antibody alone gives 4.11 in this quadrant (FIG. 7A)
[2] = biological target: phrGFP-ΔMUC16^c334 on SKOV3 cells (human); assay: FACS dot plot, surface staining, goat anti-mouse IgG PE (FL2) against GFP (FL1); secondary antibody alone gives 0.69 in this quadrant (FIG. 7A)
[3] = biological target: phrGFP-ΔMUC16^c114 on SKOV3 cells (human); assay: FACS dot plot, surface staining, goat anti-mouse IgG PE (FL2) against GFP (FL1); secondary antibody alone gives about 0.9 in this quadrant (FIG. 7A)
[4] = biological target: phrGFP-ΔMUC16^c114 on SKOV3 cells (human); assay: FACS dot plot, surface staining, goat anti-mouse IgG PE (FL2) against GFP (FL1); secondary antibody alone gives 0.55 in this quadrant (FIG. 7A)
[5] = biological target: human MUC16 on OVCAR3 cells (human); assay: FACS dot plot, surface staining, goat anti-mouse IgG PE (FL2) against GFP (FL1); secondary antibody alone gives 8.06 in this quadrant (FIG. 7A)
[6] = biological target: phrGFP-ΔMUC16^c114 on SKOV3 cells (human); assay: FACS dot plot, surface staining, goat anti-mouse PE (FL2) against GFP (FL1); secondary antibody alone gives about 0.9 in this quadrant
[7] = biological target: human MUC16 on OVCAR3 cells (human); assay: FACS dot plot, surface staining, goat anti-mouse PE (FL2) against GFP (FL1); secondary antibody alone gives 8.06 in this quadrant
[8] = biological target: phrGFP-ΔMUC16^c334 on SKOV3 cells (human); assay: FACS dot plot, surface staining, goat anti-mouse PE (FL2) against GFP (FL1); secondary antibody alone gives 4.11 in this quadrant
[9] = biological target: phrGFP-ΔMUC16^c334 on SKOV3 cells (human); assay: FACS dot plot, surface staining, goat anti-mouse PE (FL2) against GFP (FL1); secondary antibody alone gives 0.69 in this quadrant
[10] = biological target: phrGFP-ΔMUC16^c114 on SKOV3 cells (human); assay: FACS dot plot, surface staining, goat anti-mouse PE (FL2) against GFP (FL1); secondary antibody alone gives 0.55 in this quadrant
[11] = biological target: mouse MUC16 on ID8 and BR5-FVB1 cells (mouse); assay: FACS on BR5-FVB1 (mouse) cells, second antibody alone
[12] = biological target: mouse MUC16 on ID8 and BR5-FVB1 cells (mouse); assay: FACS on ID8 (mouse) cells, second antibody alone
[13] = biological target: phrGFP-ΔMUC16^c114 on SKOV3 cells (human); assay: FACS dot plot, surface staining, goat anti-mouse PE (FL2) against GFP (FL1); secondary antibody alone gives about 0.9 in this quadrant (FIG. 7A)
[14] = biological target: phrGFP-ΔMUC16^c334 on SKOV3 cells (human); assay: FACS dot plot, surface staining, goat anti-mouse PE (FL2) against GFP (FL1); secondary antibody alone gives 0.69 in this quadrant (FIG. 7A)
[15] = biological target: human MUC16 on OVCAR3 cells (human); assay: FACS dot plot, surface staining, goat anti-mouse PE (FL2) against GFP (FL1); secondary antibody alone gives 8.06 in this quadrant (FIG. 7A)
[16] = biological target: phrGFP-ΔMUC16^c334 on SKOV3 cells (human); assay: FACS dot plot, surface staining, goat anti-mouse PE (FL2) against GFP (FL1); secondary antibody alone gives 4.11 in this quadrant (FIG. 7A)
[17] = biological target: phrGFP-ΔMUC16^c114 on SKOV3 cells (human); assay: FACS dot plot, surface staining, goat anti-mouse PE (FL2) against GFP (FL1); secondary antibody alone gives 0.55 in this quadrant (FIG. 7A)
[18] = biological target: T1, MUC16 Polypeptide 2 (human, not fully specified); assay: ELISA on synthetic peptide, hybridoma sup 1:1
T1 construct: Synthetic peptide
T1 peptide: CTLDRSSVLVDGYSPNRNE

[19] = biological target: T2, Mouse MUC16-CD Peptide 1 (mouse, also: N-terminal Cys added for KLH conjugation of immunogen); assay: ELISA of clone supernatant on individual mouse MUC16 peptides
T2 construct: A cysteine was added at the N terminus for KLH conjugation of the immunogen
T2 peptide: TLDRKSVFVDGYSQNRDD

phrGFP-ΔMUC16^c114 on SKOV3 cells (human), sequence (chain, as listed by the source mutant limits assumed): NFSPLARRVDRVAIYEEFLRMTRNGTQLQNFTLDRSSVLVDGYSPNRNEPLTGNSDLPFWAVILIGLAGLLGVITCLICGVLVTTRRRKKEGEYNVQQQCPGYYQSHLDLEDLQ
mouse MUC16 on ID8 and BR5-FVB1 cells (mouse), sequence (chain, as listed by the source limits assumed): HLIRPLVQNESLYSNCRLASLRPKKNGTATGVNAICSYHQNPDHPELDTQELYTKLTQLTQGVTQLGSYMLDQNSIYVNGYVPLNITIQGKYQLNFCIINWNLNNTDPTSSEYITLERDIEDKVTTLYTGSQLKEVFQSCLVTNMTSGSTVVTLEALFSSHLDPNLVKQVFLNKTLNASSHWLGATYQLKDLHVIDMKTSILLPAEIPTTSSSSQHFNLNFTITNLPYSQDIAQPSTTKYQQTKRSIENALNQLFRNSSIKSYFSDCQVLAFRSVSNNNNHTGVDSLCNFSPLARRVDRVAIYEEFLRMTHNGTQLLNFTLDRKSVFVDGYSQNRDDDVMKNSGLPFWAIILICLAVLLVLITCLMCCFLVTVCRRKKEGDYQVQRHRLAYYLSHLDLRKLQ

% of events in the upper right quadrant (PE-positive, GFP-positive) [1]: 6.59% | % of events in the upper left quadrant (PE-positive, GFP-negative) [2]: 0.91% | % of events in the upper right quadrant (PE-positive, GFP-positive) [3]: 1.02% | % of events in the upper left quadrant (PE-positive, GFP-negative) [4]: 0.69% | % of events in the upper left quadrant (PE-positive, GFP-negative) [5]: 94.9%
Molecule: VK8 (antibody)

% of events in the upper right quadrant (PE-positive, GFP-positive) [6]: 1.09% | % of events in the upper left quadrant (PE-positive, GFP-negative) [7]: 97% | % of events in the upper right quadrant (PE-positive, GFP-positive) [8]: 25.4% | % of events in the upper left quadrant (PE-positive, GFP-negative) [9]: 1.1% | % of events in the upper left quadrant (PE-positive, GFP-negative) [10]: 2.39%
Molecule: OC125 (antibody)

% of cells in the PE-positive gate [11]: 0.99% | % of cells in the PE-positive gate [12]: 4.53%
Molecule: G anti Mouse IgG2b-PE (antibody)

% of events in the upper right quadrant (PE-positive, GFP-positive) [13]: 1.24% | % of events in the upper left quadrant (PE-positive, GFP-negative) [14]: 1.35% | % of events in the upper left quadrant (PE-positive, GFP-negative) [15]: 95.3% | % of events in the upper right quadrant (PE-positive, GFP-positive) [16]: 33.5% | % of events in the upper left quadrant (PE-positive, GFP-negative) [17]: 2.55%
Molecule: M11 (antibody)

binding result [18]: binds
B1: 4H11.2.5 (antibody, V domains shown)
VH: VKLQESGGGFVKPGGSLKVSCAASGFTFSSYAMSWVRLSPEMRLEWVATISSAGGYIFYSDSVQGRFTISRDNAKNTLHLQMGSLRSGDTAMYYCARQGFGNYGDYYAMDYWGQGTTVTVSS
VL: DIELTQSPSSLAVSAGEKVTMSCKSSQSLLNSRTRKNQLAWYQQKPGQSPELLIYWASTRQSGVPDRFTGSGSGTDFTLTISSVQAEDLAVYYCQQSYNLLTFGPGTKLEVKR
notes: Mouse monoclonal, IgG2b (parent supernatant IgG2b, IgM); also called 4H11 MAb

binding result [18]: binds
B2: 4A5.37 (antibody, IgG1, V domains shown)
VH: VKLEESGGGFVKPGGSLKISCAASGFTFRNYAMSWVRLSPEMRLEWVATISSAGGYIFYSDSVQGRFTISRDNAKNTLHLQMGSLRSGDTAMYYCARQGFGNYGDYYAMDYWGQGTTVTVSS
VL: DIELTQSPSSLAVSAGEKVTMSCKSSQSLLNSRTRKNQLAWYQQKTGQSPELLIYWASTRQSGVPDRFTGSGSGTDFTLTISSVQAEDLAVYYCQQSYNLLTFGPGTKLEIKR
notes: Mouse monoclonal, IgG1

binding result [19]: binds
B3: 12B10-3G10 (antibody, V domains shown)
VH: EVKLEESGGGLVQPKGSLKLSCAASGFTFNTYAVHWVRQAPGKGMEWVARIRSKSGNYATYYADSVKDRFTISRNDSQSMLYLQMNNLKTEDTAIYYCVRAGNNGAFPYWGQGTTVTVSS
VL: DIELTQSPSSLSASLGGRVTITCKASQDIKKYIAWYQHKPGKTPRLLIHFTSTLQTGIPSRFSGRGSGRDYSFSISNLESEDIATYYCLQYDSLYTFGGGTKLEIKR
notes: Mouse mAb against mouse MUC16, IgG 2b; also called mouse 12B10 mAb; 12B10-3F7

— patent publication US20180230231A1 (Memorial Sloan Kettering, published 2018)
